“Also recorded” adds a separate entry of the source.
How the values were obtained:
[1] = tested on: FoxP3+ CD8 T-cells (TcREG); test: RANKL dose finding: FoxP3+ CD8 T-cells in bone marrow of FoxP3-GFP reporter mice; assay type: in vivo; settings: two consecutive days, 50 hours after first dose, lowest dose 0.125 mg/kg
Protocol: FIGS. 1A, 1B and 1C indicate that TcREG are induced by activated osteoclasis. […] In the absence of RANK L treatment, very low level of conversion was observed after three days. […] ZA was administered intravenously one week prior to adoptive transfer of CD8 T-cells.
It was first determined the dose of RANKL that produced the maximal number FoxP3^+ CD8 T-cells in the bone marrow. RANKL was administered into FoxP3-GFP reporter mice at various doses for two consecutive days. Fifty hours after first dose, the mice were sacrificed and the numbers of CD8 T-cells that were GFP positive cells in the bone marrow were measured. […] The increased levels of FoxP3 in the bone marrow could either be due to recruitment of TcREG to the bone marrow or induction of FoxP3 expression in cells that were FoxP3 negative. To test for induction FACS sorted the GFP negative population of CD8 (Thy 1.2+ that were CD44 negative or naïve) from the spleens and bone marrow to high purity (FIG. 1C first panel) and adoptively transferred them into congenically marked (Thy 1.1) OT-I Rag^−/− mice. […] In the absence of RANKL administration low levels […] CD8 T-cell were detected (FIGS. 1B and C second panel), but RANKL administration (0.125 mg/kg) yielded ˜1% […] Thy 1.2 T-cells (FIGS. 1B and 1C third panel). […]

[2] = tested on: atheroma plaque; test: Male LDLR-/- mice on western diet, pulsed low-dose RANKL; assay type: in vivo; settings: 9 weeks
Protocol: FIGS. 22 and 23 extend the evaluation of the effect of pulse RANKL treatment to male LDLR mice. Surgery was, unnecessary in this case, so all mice were simply placed on the western diet at 10 weeks of age. Two weeks later one-half of the mice were treated with pulsed low-dose RANKL as contemplated elsewhere herein and the same group was treated again 6 weeks later. Time of treatment is indicated by the arrows in FIG. 22. […] All mice were sacrificed 9 weeks after the start of the experiment and plaque volumes were compared between the two groups.

[3] = tested on: ovariectomized mice; test: Kinetics of a single low-dose RANKL treatment followed by serum CTX; assay type: in vivo; settings: twice 24 hrs apart, 2 weeks post-OVX
Protocol: (§1) Food was withdrawn 6 to 10 hours prior to bleeding. Peripheral blood (100 to 200 μL) obtained via sub-mandibular vein, was allowed to clot for 2 hours at room temperature and serum collected by spinning down the cell pellet. Serum C-terminal telopeptide of type 1 collagen (serum CTX) was measured using ELISA according to the manufacturer's instructions (Immunodiagnostic Systems, Plc)
(§2) To assess the kinetics of a single treatment, C57BL/6J ovariectomized mice were treated with low-dose RANKL (administered twice 24 hrs apart, 2 weeks post-OVX) and then followed by serum CTX assay. […] In FIG. 11B, to assess whether multiple treatments are effective, sham-operated (Sx) or OVX 12-week old C57BL/6J mice were treated with low-dose RANKL (0.125 mg/kg) once per month or once with the bisphosphonate Zoledronate (ZA; 3 weeks post-OVX). 120 days post-OVX peripheral blood obtained by mandible bleeds was treated to remove RBCs (BD Pharmalyse) then 1 to 3×10^6 cells were plated per well in triplicate (6 mice/group). Media was collected after 36 hours of culturing and cytokine levels quantitated by multiplexed ELISA (Millipore).

[4] = tested on: TNFα and IL17A; test: Once per month low-dose RANKL or Zoledronate: cytokines from peripheral blood cells by multiplexed ELISA; assay type: in vivo, mice; settings: 120 days post-OVX; RANKL 0.125 mg/kg once per month; ZA once 3 weeks post-OVX
Protocol: as §2

[5] = tested on: ovariectomized mice; test: Low dose RANKL in ovariectomized mice (TcREG, serum CTX, μCT, bone formation); assay type: in vivo
Protocol: Representative FACS contour plots are shown on the first and second panel and the distribution (N=8 mice per group) is shown in the third panel. […] In these experiments (panels C-F), we used ex vivo generated TcREG as a positive control/comparator. […] Arrows are shown to emphasize the distance between dyes.
it was then determined that RANKL induces functional TcREG in ovariectomized mice. Having shown that RANKL could restore the ability of osteoclasts to induce FoxP3 expression in the presence of TNFα in vitro, we tested the ability of RANKL to induce TcREG in ovariectomized mice, as proof of principle for de-repression by increased levels of RANKL in pro-inflammatory environment. Again, a dose of RANKL that induced the highest levels of TcREG in vivo (FIG. 1A) was used. Administration of love dose RANKL to ovariectomized mice increased TcREG numbers by an average of 1.8-fold (FIG. 6A). To determine whether this increase in TcREG numbers affected bone resorption in ovariectomized mice, levels of bone resorption and bone formation rates in these (low-dose) RANKL-treated mice were measured. As it has been previously established that ex vivo generated OC-iTcREG limit bone resorption, increased bone mass, decreased activated effector T-cells, and increases bone formation and mineral apposition rates, this treatment was used as a benchmark in these experiments.
Bilateral ovariectomy was performed on 12-14 week old mice. Mice were anesthetized using 2.5% isoflurane to initiate anesthesia, and 1% for maintenance. The ovaries were accessed through a single incision in the skin, and exteriorized through muscle wall on each side. Each ovary was clamped using hemostat and removed by a single cut. Skin staples (3M) were used to close the skin incision. To minimize discomfort post-surgery, 0.025 mg/kg Buprenorphine was administered subcutaneously. Zoledronate (Selleck Chemicals) was administered at 30 μg/kg via tail vein.
as §1
The bones were scanned in μCT40 (Scanco Medical) at 55 kVp, 145 μA, and resolution of 16 μm. Gauss sigma of 1.2, Gauss support of 2, lower threshold of 237, and upper threshold of 1000 were used for all the analysis. Regions of interest were selected 50 slices below the growth plate of the proximal tibia to evaluate the trabecular compartment. Bone mineral density was obtained by quantitative μCT using Scanco Phantoms for calibration^49. All μCT data and bone histomorphometry data was collected and analyzed by C.Y, who was blinded to the treatment performed on the mouse samples.

B1: receptor activator of NF-κB ligand (protein, UniProt O35235 139-316, looked up)
Tumor necrosis factor ligand …: FSGAPAMMEGSWLDVAQRGKPEAQPFAHLTINAASIPSGSHKVTLSSWYHDRGWAKISNMTLSNGKLRVNQDGFYYLYANICFRHHETSGSVPTDYLQLMVYVVKTSIKIPSSHNLMKGGSTKNWSGNSEFHFYSINVGGFFKLRAGEEISIQVSNPSLLDPDQDATYFGAFKVQDID
modifications: GST tag
proportion of FoxP3+ CD8 T cells in the bone marrow as a function of RANKL dose [1]: induced the largest proportion of FoxP3^+ CD8 T cells | plaque volumes [2]: plaque volumes were reduced in the treated group | weight gain [2]: weight gain in the treated mice was reduced | time a single treatment is effective to limit bone loss / bone resorption ([3]; listed as low dose RANKL): approximately 28 days | time a single treatment is effective to limit bone loss / bone resorption ([3]; listed as low-dose RANKL): up to 30 days | TNFα and IL17A produced by peripheral blood cells (immunosuppression) [4]: immunosuppressive | osteoclasts occupying bone [5]: fewer osteoclasts occupying bone | overall effectiveness of treatment [5]: more effective treatment than OC-iTcREG and the bisphosphonate Zoledronic acid by all measurable criteria | bone mass and bone mineral density (μCT) ([5]; comparator OC-iTcREG): more bone mass and bone mineral density relative to the OC-iTcREG treated mice | serum CTX ([5]; comparator OC-iTcREG, listed as low dose RANKL): lower levels of serum CTX compared to mice treated with OC-iTcREG | serum CTX ([5]; comparator OC-iTcREG, listed as low-dose RANKL): serum CTX levels decreased | bone formation and mineral apposition rates ([5]; comparators OC-iTcREG, Zoledronate, listed as low dose RANKL): to a greater extent than Zoledronate and ex vivo generated TcREG; also recorded: increase bone formation and mineral apposition rates than OC-iTcREG treated mice | TcREG induction in bone marrow ([5]; intraperitoneal 0.125 mg/kg): induced TcREG in the bone marrow of ovariectomized mice | increase in TcREG numbers (average) ([5]; low dose RANKL): 1.8 fold
